# Measured values taken from patent US20180128830A1, “DETECTION OF HUMAN CYTOMEGALOVIRUS IN BREAST CANCER” (priority 2015, published 2018).
# B1: IFNγ: purified recombinant interferon-gamma from R&D Systems (protein, UniProt P01579 24-161, looked up)
# Interferon gamma: QDPYVKEAENLKKYFNAGHSDVADNGTLFLGILKNWKEESDRKIMQSQIVSFYFKLFKNFKDDQSIQKSVETIKEDMNVKFFNSNKKKRDDFEKLTNYSVTDLNVQRKAIHELIQVMAELSPAAKTGKRKRSQMLFRG
# Tests used:
# MDA-MB-231 cells [1] = experiment: Apoptosis, Annexin V-FITC flow cytometry; assay type: cell-based, human; settings: 100 μM etoposide, 48 hrs
# Procedure: (§1) Cells were seeded into 96-well dishes at a density of 1×10^4 cell per well in complete medium with varying doses of cmvIL-10, and then cell viability measured at the indicated time points using the Cell Titer Glo Assay kit according to manufacturer's instructions (Promega). DNA synthesis was measured in cells prepared in the same way using the BrdU Cell Proliferation ELISA Kit (Roche, Basel, Switzerland). For experiments using inhibitors, cells were cultivated in 96-well dishes as above with a final concentration of 10 μM inhibitor and BrdU incorporation evaluated after 72 hrs. For cell counts, cells were seeded into 6-well plates at a density of 2×10^5 cells per well, harvested via trypsinization, and counted using a hemacytometer at the indicated time points. The TACS Annexin V-FITC Detection Kit (Trevigen, Gaithersburg, Md.) was used to stain cells harvested from 70% confluent T75 flasks that had been treated with 100 μM etoposide for 48 hrs in the presence or absence of 100 ng/ml cmvIL-10. Cells were then analyzed via flow cytometry to detect fluorescence. For viability assays, Cell Titer Glo reagent was utilized to quantify cells that had been seeded into 96-well dishes at a density of 1×10^4 cell per well in complete medium with varying doses of etoposide in the presence or absence of 100 ng/ml cmvIL-10 as indicated
# CXCR4 = target: T1, CXCR4 (Homo sapiens, UniProt P61073); experiment: Calcium flux assay in HEK293 cells; assay type: cell-based; settings: CXCL12 0.1 μg/ml alone
# T1 construct: HEK293 cells, which endogenously express both CXCR4 and IL-10R; endogenous in cells; host or cells: HEK293
# Procedure: Calcium flux assays were performed as described (Arnolds K L, et al. Virology 439:122-131.). Briefly, cells were resuspended in 2 mls calcium assay buffer (RPMI with 25 mM of HEPES) at a density of 5×10^5 cells/ml per sample. Each sample was labeled with 2 μl of Fluo-4AM (Invitrogen, Grand Island, N.Y.), wrapped in foil, at 37° C. for 30 minutes with agitation at 10-minute intervals. Following incubation, each sample was pelleted, resuspended in calcium assay buffer, and transferred into an eppendorf tube for flow cytometry using the BD C6 Accuri. Fluorescence intensity of each sample was measured for 20 seconds to establish baseline, then stimulus (CXCL12, in the presence or absence of cmvIL-10, as indicated) was added via micropipetting directly into the sample while fluorescence intensity was measured. Kinetic fluorescence intensity analysis was performed with FlowJo software v9.4.9 (FlowJo, Ashland, Oreg.). Purified recombinant cmvIL-10 was purchased from R&D Systems (Minneapolis, Minn.) and purified recombinant CXCL12 was purchased from Peprotech (Rocky Hill, N.J.). For each calcium flux assay, ionomycin (Sigma) was a positive control for Fluo-4AM loading and PBS served as a negative control for the addition of stimulus.
# HEK293 cells = experiment: Transwell migration toward CXCL12; assay type: cell-based, human; settings: 4 hours, 5.0 μm filter
# Procedure: Transwell migration assays were performed by suspending cells at a density of 5×10^4 cells/ml in migration media (MEM or RPMI […] media plus 0.5% FBS). A total of 75 μl of cells was placed onto the upper chamber of a 96-well transwell system with 5.0 μm pores (Corning-Costar, Corning, N.Y.). The lower chamber contained 235 μl of migration media with CXCL12 plus or minus cmvIL-10 as indicated. Plates were incubated for four hours at 37° C., and then cells that traversed through the filter into the lower chamber were quantified via the addition of CellTitre-Glo reagent (Promega, Madison, Wis.) according to manufacturer's instructions.
# MDA-MB-231 cells [2] = experiment: DNA synthesis, BrdU Cell Proliferation ELISA; assay type: cell-based, human; settings: 10 ng/ml of each cytokine, 72 hrs
# Procedure: as §1
# Stat3 = experiment: Western blot for Stat3 phosphorylation in MDA-MB-231 cells; assay type: cell-based, human; settings: 100 ng/ml, 15 min
# Procedure: (§2) For western blotting, cells were treated with 100 ng/ml cmvIL-10, hIL-10, IFNγ or PBS for 15 min, then harvested into cell lysis buffer (150 mM NaCl, 20 mM HEPES, 0.5% Triton-X-100, 1 mM NaOV4, 1 mM EDTA, 0.1% NaN3). Lysates were clarified, proteins were separated via SDS-PAGE, and then transferred to a nitrocellulose membrane. Then membrane was incubated in blocking solution (5% milk+1×TBS-T) for 1 hr, then probed with primary antibody at a 1:1000 dilution (total Stat3 or pStat3, total Stat1 or pStat1) in blocking solution overnight at 4° C. After washing, the membranes were incubated with a 1:2000 dilution of appropriate AP-conjugated secondary antibody and bands were detected using Western Blue stabilized AP substrate (Promega, Madison, Wis.). For analysis of secreted proteins, supernatants were collected at various time points, analyzed by SDS-PAGE and then immunoblotted as above for cmvIL-10, hIL-10, or serpin E1/PAI.
# Stat1 = experiment: Western blot for Stat1 phosphorylation in MDA-MB-231 cells; assay type: cell-based, human; settings: 100 ng/ml, 15 min
# Procedure: as §2
# T1 sequence (P61073 whole entry): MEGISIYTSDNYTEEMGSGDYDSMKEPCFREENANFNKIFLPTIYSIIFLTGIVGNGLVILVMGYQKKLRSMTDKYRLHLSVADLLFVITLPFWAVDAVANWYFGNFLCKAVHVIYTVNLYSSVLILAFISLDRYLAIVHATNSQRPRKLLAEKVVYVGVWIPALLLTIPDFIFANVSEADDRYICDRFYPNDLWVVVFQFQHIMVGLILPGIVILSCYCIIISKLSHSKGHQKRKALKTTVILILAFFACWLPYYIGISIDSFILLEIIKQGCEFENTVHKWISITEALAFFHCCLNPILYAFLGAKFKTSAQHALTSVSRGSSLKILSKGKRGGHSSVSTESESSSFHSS
molecule,measurement,setting,value
"COc1cc([C@@H]2c3cc4c(cc3[C@@H](O[C@@H]3O[C@@H]5CO[C@@H](C)O[C@H]5[C@H](O)[C@H]3O)[C@H]3COC(=O)[C@H]23)OCO4)cc(OC)c1O [etoposide, reference compound]",cells stained positive for Annexin V,MDA-MB-231 cells [1],30.9%
CXCL12: purified recombinant CXCL12 chemokine from Peprotech,calcium mobilization (fluorescence),CXCR4,rapid but transient increase in fluorescence
same,CXCL12 dose giving maximal migration,HEK293 cells,0.1 ng/mL
IL-6: purified recombinant IL-6 from R&D Systems,cell proliferation (BrdU incorporation),MDA-MB-231 cells [2],inhibited cell growth
B1,83 kD band of phosphorylated Stat3 (pStat3),Stat3,not
same,Stat1 phosphorylation,Stat1,phosphorylated in response to IFNγ treatment only
same,cell proliferation (BrdU incorporation),MDA-MB-231 cells [2],inhibited cell growth
